Reference: article PMC13235457

Experiments:
[1] = target: ZAP-70 tSH2 domain R190A mutant (human) (UniProt P43403); assay: ITC; 20 μM R190A tSH2 in the cell, 300 μM ITAM-ζ1-Y2P in the syringe; 20 °C; 20 mM HEPES pH 8.2, 5 mM β-mercaptoethanol, glycerol-free; 5 mM KCl; one-site model
[2] = target: ZAP-70 tSH2 domain R190A mutant (human) (UniProt P43403); assay: ITC; 20 μM R190A tSH2 in the cell, 300 μM ITAM-ζ1-Y2P in the syringe; 20 °C; 20 mM HEPES pH 8.2, 5 mM β-mercaptoethanol, glycerol-free; 20 mM KCl; one-site model
[3] = target: ZAP-70 tSH2 domain R190A mutant (human) (UniProt P43403); assay: ITC; 20 μM R190A tSH2 in the cell, 300 μM ITAM-ζ1-Y2P in the syringe; 20 °C; 20 mM HEPES pH 8.2, 5 mM β-mercaptoethanol, glycerol-free; 150 mM NaCl; one-site model

- Kd [1]: 9.77 µM
- Kd [2]: 20.9 µM
- Kd [3]: 6.33 µM
Substance: ITAM-ζ1-Y2P peptide (doubly phosphorylated first ITAM of the CD3-ζ chain)
